Reference: paper PMC4776140, “Stimulation of translation by human Unr requires cold shock domains 2 and 4, and correlates with poly(A) binding protein interaction” (Scientific Reports, 2016)

Biological target: T1, GST-tagged PABP1 (UniProt P11940 1-636)
T1 construct: also called GST-PABP1; source: E. coli BL21(DE3) from pGEX2T, purified (glutathione Sepharose 4B)
Assay: pull-down; as the GST pull-down, with 0.1 mg/ml RNase A added to the TnT reaction, 30 min at 30 °C before pull down; value relative to no RNase A
Settings: one partner purified

B1: wild type Unr, in vitro translated, 35S-labelled (natural protein, human, UniProt O75534-2 1-767, looked up)
chain: MSFDPNLLHNNGHNGYPNGTSAALRETGVIEKLLTSYGFIQCSERQARLFFHCSQYNGNLQDLKVGDDVEFEVSSDRRTGKPIAVKLVKIKQEILPEERMNGQEVFYLTYTPEDVEGNVQLETGDKINFVIDNNKHTGAVSARNIMLLKKKQARCQGVVCAMKEAFGFIERGDVVKEIFFHYSEFKGDLETLQPGDDVEFTIKDRNGKEVATDVRLLPQGTVIFEDISIEHFEGTVTKVIPKVPSKNQNDPLPGRIKVDFVIPKELPFGDKDTKSKVTLLEGDHVRFNISTDRRDKLERATNIEVLSNTFQFTNEAREMGVIAAMRDGFGFIKCVDRDVRMFFHFSEILDGNQLHIADEVEFTVVPDMLSAQRNHAIRIKKLPKGTVSFHSHSDHRFLGTVEKEATFSNPKTTSPNKGKEKEAEDGIIAYDDCGVKLTIAFQAKDVEGSTSPQIGDKVEFSISDKQRPGQQVATCVRLLGRNSNSKRLLGYVATLKDNFGFIETANHDKEIFFHYSEFSGDVDSLELGDMVEYSLSKGKGNKVSAEKVNKTHSVNGITEEADPTIYSGKVIRPLRSVDPTQTEYQGMIEIVEEGDMKGEVYPFGIVGMANKGDCLQKGESVKFQLCVLGQNAQTMAYNITPLRRATVECVKDQFGFINYEVGDSKKLFFHVKEVQDGIELQAGDEVEFSVILNQRTGKCSACNVWRVCEGPKAVAAPRPDRLVNRLKNITLDDASAPRLMVLRQPRGPDNSMGFGAERKIRQAGVID
modifications: radiolabelled with [35S] methionine
notes: numbers count on: Unr protein isoform 2; Same pET21d plasmids as for the histidine-tagged recombinant Unr; also called wt Unr; CSDE1; source: in vitro transcribed/translated from pET21d plasmid (TnT Quick Coupled System, Promega), not purified
percent pull-down with RNase A relative to no RNase A: 79%
